From US20260028400A1 (AIMED BIO, published 2026)
Changes are numbered by the printed parent chain.

B1: P015044-vc-PAB-MMAE (antibody, IgG1, V domains shown)
VH: EVQLLESGGGLVQPGGSLRLSCAASGFTFSNYAMHWVRQAPGKGLEWVSIIYPDDDTRYNPSFRGRFTISRDNSKNTLYLQMNSLRAEDTAVYYCARDLLYAGDYWGQGTLVTVSS
VL: QSVLTQPPSASGTPGQRVTISCGGNNIESKAVHWYQQLPGTAPKLLIYANNKRPSGVPDRFSGSKSGTSASLAISGLRSEDEADYYCQSYDSNKVVFGGGTKLTVL
modifications: maleimidocaproyl-valine-citrulline-p-aminobenzyloxycarbonyl monomethyl auristatin E on cysteine sulfhydryls of reduced disulfides; positions not given; average 3.0 drugs per antibody
B2: P015002 (antibody, V domains shown)
VH: EVQLLESGGGLVQPGGSLRLSCAASGFTFSDYSMSWVRQAPGKGLEWVSGISHNGGSTYYADSVKGRFTISRDNSKNTLYLQMSSLRAEDTAVYYCARDVSRWSKTRWSYDNAMDVWGQGTLVTVSS
VL: QSVLTQPPSASGTPGQRVTISCTGSSSNIGSNYVSWYRQLPGTAPKLLIYSDSNRPSGVPDRFSGSKSGTSASLAISGLRSEDEADYYCATWDASLSAYVFGGGTKLTVL
B3: P015005 (antibody, V domains shown)
VH: B2 VH
VL: B2 VL with T23S, S35N, R38Q, N54H, A90G, T91S, A94S, S97N, F101L
B4: P015042v1-6 (antibody, V domains shown)
VH: EVQLLESGGGLVQPGGSLRLSCAASGFTFSDYAMSWVRQAPGKGLEWVSVISSDKGSIYYADSVKGRFTISRDNSKNTLYLQMNSLRAEDTAVYYCAKDRSRDMEVDFDYWGQGTLVTVSS
VL: B2 VL with T23S, S35T, R38Q, S51D, D52K, N54Q, A90G, A94Y, S97N
notes: Variant of P015042v1, tested as IgG
B5: P015001 (antibody, V domains shown)
VH: EVQLLESGGGLAQPGGSLRLSCAASGFTFSNYDMSWVRQAPGKGPEWVSGIYSGNSNTYYADSVKGRFTISRDNSKNTLYLQMNSLRAEDTAVYYCARDLQYTEWAGFDYWGQGTLVTVSS
VL: B2 VL with T23S, Y33D, S35T, R38Q, S51D, N54K, T91A, A94D, A98G
B6: P015018 (antibody, V domains shown)
VH: EVQLLESGGGLVQPDGSMRLICAASGFTFSSYAKHWVRQAPGKGLEWVSEIYTSGSTNYNPSLKSRFTISRDNSKNTLYLQMNSLRAEDTAVYYCARDTWWEGYFDLWGQGTLVTVSS
VL: EIVLTQSPGTLSLSPGERATLSCRASQSVSTYLAWYQQKPGQAPRLLIYDASSLESGIPDRFSGSGSGTDFTLTISRLEPEDFAVYYCQQSYNLPHTFGQGTKVEIK
B7: P015012 (antibody, V domains shown)
VH: EVQLLESGGGLVQPGGSLRLSCAASGFTFSGYSMSWVRQAPGKGLEWVSGISYGGSSISYADSVKGRFTISRDNSKNTLYLQMNSLRAEDTAVYYCAKPVRRWARFRLSYDDAMDVWGQGTLVTVSS
VL: QSVLTQPPSASGTPGQRVTISCSGSSSNIGNNAVNWYQQLPGTAPKLLIYANSHRPSGVPDRFSGSKSGTSASLAISGLRSEDEADYYCGTWDSSLSGYVFGGGTKLTVL
B8: P015043 (antibody, V domains shown)
VH: EVQLLESGGGLVQPGGSLRLSCAASGFTFSNYDMSWVRQAPGKGLEWVSWISPGGSSIYYADSVKGRFTISRDNSKNTLYLQMNSLRAEDTAVYYCAKTLTRFDYWGQGTLVTVSS
VL: B7 VL with S23T, A33N, N35S, A51Y, N52D
B9: P015042v1 (antibody, V domains shown)
VH: B4 VH with K55G
VL: B7 VL with N31S, A33Y, N35T, A51D, N52S, H54Q, S94Y, S97N
notes: Tested as complete IgG; Parent of the variants P015042v1-1 to P015042v1-6

biological target: T1, ROR1 expressed on cell surface (Jeko-1 cell line, AMB-LC-0003T and AMB-LC-0002T patient-derived lung cancer … (human, UniProt Q01973 30-937)); assay: cell-based or functional assay
T1 sequence (Q01973 30-937): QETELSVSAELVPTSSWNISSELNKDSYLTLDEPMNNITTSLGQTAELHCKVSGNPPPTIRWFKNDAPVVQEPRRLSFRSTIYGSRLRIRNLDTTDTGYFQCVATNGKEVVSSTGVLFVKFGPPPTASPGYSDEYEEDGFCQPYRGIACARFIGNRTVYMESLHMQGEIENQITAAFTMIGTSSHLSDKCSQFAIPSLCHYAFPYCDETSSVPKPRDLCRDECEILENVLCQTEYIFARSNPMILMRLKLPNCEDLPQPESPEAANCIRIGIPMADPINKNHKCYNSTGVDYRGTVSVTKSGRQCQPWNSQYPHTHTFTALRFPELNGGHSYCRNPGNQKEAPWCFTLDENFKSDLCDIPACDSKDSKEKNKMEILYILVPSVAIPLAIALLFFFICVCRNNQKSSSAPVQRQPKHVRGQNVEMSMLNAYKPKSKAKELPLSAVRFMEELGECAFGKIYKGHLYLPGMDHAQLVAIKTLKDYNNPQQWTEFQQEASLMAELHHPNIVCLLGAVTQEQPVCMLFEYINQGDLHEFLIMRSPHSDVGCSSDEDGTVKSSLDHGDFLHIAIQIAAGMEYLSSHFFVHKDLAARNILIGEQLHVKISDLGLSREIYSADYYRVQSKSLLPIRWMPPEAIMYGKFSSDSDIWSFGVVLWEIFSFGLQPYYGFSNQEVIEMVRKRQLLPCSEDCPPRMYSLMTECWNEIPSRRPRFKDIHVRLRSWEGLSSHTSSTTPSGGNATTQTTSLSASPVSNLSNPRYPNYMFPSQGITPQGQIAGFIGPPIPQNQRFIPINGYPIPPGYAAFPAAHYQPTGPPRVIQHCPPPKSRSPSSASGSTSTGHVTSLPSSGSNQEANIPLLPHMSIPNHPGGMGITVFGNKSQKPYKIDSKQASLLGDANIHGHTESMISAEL

Row | Fold Change of IC50, AMB-LC-0002T/AMB-LC-0003T [fold] | IC50 (nM), spheroid volume after 6 days of treatment, AMB-LC-0003T (high ROR1 expression) [nM] | IC50 (nM), spheroid volume, AMB-LC-0002T (very low ROR1 expression) [nM] | Binder
1 | 22.7 | 5.38 | 122 | B1

biological target: T2, mouse ROR1 (mouse, UniProt Q9Z139 30-403, limits assumed); assay: ELISA, IgG on coated mouse ROR1, OD450
T2 construct: also called mouse ROR1 protein
T2 sequence (Q9Z139 30-403 limits assumed): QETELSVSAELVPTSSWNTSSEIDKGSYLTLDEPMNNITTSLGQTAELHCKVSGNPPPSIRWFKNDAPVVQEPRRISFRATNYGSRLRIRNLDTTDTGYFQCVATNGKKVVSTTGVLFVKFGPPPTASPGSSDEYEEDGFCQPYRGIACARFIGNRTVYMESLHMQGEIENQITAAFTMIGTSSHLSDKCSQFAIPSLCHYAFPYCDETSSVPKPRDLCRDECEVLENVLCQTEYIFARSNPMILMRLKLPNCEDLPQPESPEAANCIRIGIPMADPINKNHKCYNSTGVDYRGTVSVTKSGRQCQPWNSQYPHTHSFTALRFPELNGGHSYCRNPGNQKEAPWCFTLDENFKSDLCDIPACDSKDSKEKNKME
Procedure: (§1) A 96-well plate was coated at 4° C. for 16 hours with each of human ROR1 and mouse ROR1 proteins at a concentration of 2 μg/ml and then blocked using […]. […] After washing with PBST and distilled water, binding at room temperature for 1 hour using a goat-derived HRP-conjugated anti-human antibody (Invitrogen, 31482, Goat anti-Human IgG F(ab′)₂ Secondary Antibody, HRP) and then washing again using PBST and distilled water were performed. After color development by adding TMB substrate solution (Thermo Scientific, 34029, 1-Step™ Ultra TMB-ELISA Substrate Solution), the color reaction was stopped with stop solution (Invitrogen, SS04, ELISA Stop Solution), and the absorbance was measured at OD 450 nm. It was confirmed that the anti-ROR1 antibody of the present invention and the modified antibody thereof with improved biological and physical properties […] to human ROR1 and mouse ROR1 (FIG. 2).

Row | EC50 (read off the curve) [nM] | Binder
2 | ~3 | B2
3 | ~1 | B3
4 | ~1 | B4

biological target: T3, FZD (human, UniProt Q01973); assay: ELISA, IgG on coated domain, OD450
T3 construct: frizzled domain, His tag; also called Frizzled domain; human ROR1-frizzled domain
T3 sequence (Q01973 165-305 limits assumed): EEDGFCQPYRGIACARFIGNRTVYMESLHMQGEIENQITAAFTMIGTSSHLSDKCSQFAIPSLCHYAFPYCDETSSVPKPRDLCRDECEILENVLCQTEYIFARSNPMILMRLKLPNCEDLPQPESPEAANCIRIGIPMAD
Procedure: (§2) ELISA was performed to analyze the binding domain using the IgG antibody of the selected clone.
(§3) After washing with PBST and distilled water, binding at room temperature for 1 hour using a goat-derived HRP-conjugated anti-human antibody (Invitrogen, 31482, Goat anti-Human IgG F(ab′)₂ Secondary Antibody, HRP) and then washing again using PBST and distilled water were performed. After color development by adding TMB substrate solution (Thermo Scientific, 34029, 1-Step™ Ultra TMB-ELISA Substrate Solution), the color reaction was stopped with stop solution (Invitrogen, SS04, ELISA Stop Solution), and the absorbance was measured at OD 450 nm. The anti-ROR1 antibody clone binding to each domain was analyzed through ELISA (FIG. 3).

Row | binding result | Binder
5 | no binding (tested: 300 nM) | B5
6 | no binding (tested: 300 nM) | B6

biological target: T4, Ig+FZD (human); assay: ELISA, IgG on coated domain, OD450
T4 construct: Ig-like plus frizzled domains, His tag; also called IF domain; human ROR1-immunoglobulin-frizzled domain
T4 sequence (Q01973 30-305): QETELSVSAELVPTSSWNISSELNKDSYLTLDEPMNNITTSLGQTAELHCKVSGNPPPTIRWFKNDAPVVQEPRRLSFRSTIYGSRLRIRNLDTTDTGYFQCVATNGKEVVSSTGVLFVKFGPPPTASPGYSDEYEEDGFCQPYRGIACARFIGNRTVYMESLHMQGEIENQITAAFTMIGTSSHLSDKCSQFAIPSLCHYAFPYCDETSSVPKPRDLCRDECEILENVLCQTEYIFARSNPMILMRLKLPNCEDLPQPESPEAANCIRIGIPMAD
Procedure: as §2, §3

Row | EC50 (read off the curve) [nM] | Binder
7 | ~2 | B7
8 | ~10 | B6

biological target: T5, FZD+KRD (human, UniProt Q01973); assay: ELISA, IgG on coated domain, OD450
T5 construct: frizzled plus kringle domains, His tag; also called FK domain; human ROR1-frizzled-kringle domain
T5 sequence (Q01973 165-395 limits assumed): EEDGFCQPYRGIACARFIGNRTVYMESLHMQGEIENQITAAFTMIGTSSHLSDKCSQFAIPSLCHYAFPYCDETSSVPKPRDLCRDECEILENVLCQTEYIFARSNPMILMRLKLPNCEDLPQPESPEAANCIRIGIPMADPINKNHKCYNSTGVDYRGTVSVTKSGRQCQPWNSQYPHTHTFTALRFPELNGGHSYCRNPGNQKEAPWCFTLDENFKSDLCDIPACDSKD
Procedure: as §2, §3

Row | binding result | EC50 (read off the curve) [nM] | Binder
9 | no binding (tested: 300 nM) |  | B5
10 |  | ~6 | B3
11 | no binding (tested: 300 nM) |  | B6

biological target: T6, Ig-like (human, UniProt Q01973); assay: ELISA, IgG on coated domain, OD450
T6 construct: Ig-like domain, His tag; also called Ig-like domain; human ROR1-immunoglobulin domain
T6 sequence (Q01973 39-151 limits assumed): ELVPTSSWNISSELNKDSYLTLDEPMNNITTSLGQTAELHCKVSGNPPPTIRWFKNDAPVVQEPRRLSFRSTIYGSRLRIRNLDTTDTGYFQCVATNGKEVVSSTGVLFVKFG
Procedure: as §2, §3

Row | binding result | Binder
12 | no binding (tested: 300 nM) | B8
13 | no binding (tested: 300 nM) | B7
14 | no binding (tested: 300 nM) | B2
15 | no binding (tested: 300 nM) | B3
16 | no binding (tested: 300 nM) | B6

biological target: T7, human ROR1 (human, UniProt Q01973 30-403, limits assumed); assay: SPR (Biacore 3000), human ROR1 on CM5 chip, IgG injected, 1:1 Langmuir
T7 construct: also called human ROR1 protein
T7 sequence (Q01973 30-403 limits assumed): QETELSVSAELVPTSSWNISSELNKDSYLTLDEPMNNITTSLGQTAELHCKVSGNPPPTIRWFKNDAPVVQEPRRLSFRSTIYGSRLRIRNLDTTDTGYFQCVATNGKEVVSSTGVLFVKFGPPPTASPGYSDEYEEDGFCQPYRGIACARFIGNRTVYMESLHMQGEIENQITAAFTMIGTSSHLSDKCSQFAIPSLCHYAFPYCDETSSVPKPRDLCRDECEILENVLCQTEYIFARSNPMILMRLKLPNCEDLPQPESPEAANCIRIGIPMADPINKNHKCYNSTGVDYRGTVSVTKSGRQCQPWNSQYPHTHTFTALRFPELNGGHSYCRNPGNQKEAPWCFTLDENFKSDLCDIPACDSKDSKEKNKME
Procedure: (§4) To more quantitatively analyze the binding ability of the anti-ROR1 antibody to ROR1, SPR (surface plasmon resonance) was performed. A Biacore 3000 device (GE Healthcare) was used. Using the amine coupling method, human ROR1 or mouse ROR1 was diluted with 10 mM sodium acetate, pH 4.5 and immobilized on a CM5 sensor chip (GE Healthcare) at 300 response units (RU). The activated portion remaining on the surface of the sensor chip was deactivated by adding 1 M ethanolamine-HCl (pH 8.5).

Row | Kd [nM] | koff [s⁻¹] | kon [M⁻¹ s⁻¹] | Binder
17 | 0.172 | 0.000278 | 1.62e+06 | B9
18 | 0.0789 | 0.000321 | 4.07e+06 | B7
19 | 3.71 | 0.000202 | 54300 | B2
20 | 0.63 | 0.00264 | 4.18e+06 | B5
21 | 0.4 | 6.78e-05 | 169000 | B3
22 | 0.0912 | 0.000157 | 1.72e+06 | B4
23 | 0.845 | 0.00249 | 2.95e+06 | B6

biological target: T1, ROR1 expressed on cell surface (Jeko-1 …); assay: flow cytometry on Jeko-1 cells
Procedure: (§5) Before therapeutic use of anti-ROR1 antibodies, it is very important to determine whether the antibody binds to the antigen expressed on the cell surface. The cell binding ability of anti-ROR1 antibodies developed by the present inventors was measured using FACS in Jeko-1 cell line and AMB-LC-0003T patient-derived cells, which were confirmed to have high ROR1 expression. Each cell type was dispensed at 1×10⁵ cells/100 μl FACS buffer per well in a 96-well plate.
(§6) Cell binding ability analysis was performed using anti-ROR1 candidate antibodies P015004, P015042, P015043, P015044, P015042v1 with improved biological and physical properties, and P015042v1-6, one of modified materials thereof. Each antibody was serially diluted 10-fold from 100 nM to 10 nM, 1 nM, 100 pM, 10 pM, and 1 pM and the cells were treated therewith. After reaction at 4° C. for 30 minutes, washing was performed twice. PE-labeled goat anti-human IgG Fc PE (ThermoFisher; 12-4998-82) as a secondary antibody was diluted at a ratio of 1:100 in FACS buffer, and 100 μl thereof was dispensed per well. Reaction again at 4° C. for 30 minutes and washing twice were performed. Finally, 100 μl of FACS buffer was dispensed per well, followed by mixing well with a pipette and then flow cytometry using a NovoCyte flow cytometer (Agilent). Analysis was performed using GraphPad Prism 9.3.1, and EC₅₀ values were obtained using a log (agonist) vs. response-Variable slope nonlinear graph model.

Row | EC50 [nM] | Binder
24 | 0.014 | B9
25 | 0.011 | B4

biological target: T2, mouse ROR1; assay: SPR (Biacore 3000), mouse ROR1 on CM5 chip, IgG injected, 1:1 Langmuir
Procedure: as §4

Row | Kd [nM] | koff [s⁻¹] | kon [M⁻¹ s⁻¹] | Binder
26 | 0.175 | 0.00034 | 1.94e+06 | B9
27 | 0.285 | 0.000356 | 1.25e+06 | B7
28 | 6 | 0.000278 | 46400 | B2
29 | 230 | 0.129 | 564000 | B5
30 | 0.833 | 0.0001 | 120000 | B3
31 | 0.802 | 0.0015 | 1.87e+06 | B4
32 | 83.2 | 0.0782 | 940000 | B6

biological target: T1, ROR1 expressed on cell surface (Jeko-1 …); assay: flow cytometry on AMB-LC-0003T patient-derived lung cancer cells
Procedure: as §5, §6

Row | EC50 [nM] | Binder
33 | 0.16 | B9

biological target: T1, ROR1 expressed on cell surface (Jeko-1 …); assay: cell-based or functional assay; remark: another data set of the same source

Row | Fold Change of IC50, AMB-LC-0002T/AMB-LC-0003T [fold] | IC50 (nM), spheroid volume, AMB-LC-0002T (low ROR1 expression) [nM] | IC50 (nM), spheroid volume, AMB-LC-0003T (high ROR1 expression) [nM] | Binder
34 | 39.7 | 261 | 6.59 | B1

biological target: T7, human ROR1; assay: ELISA, IgG on coated human ROR1, OD450
Procedure: as §1

Row | EC50 (read off the curve) [nM] | Binder
35 | ~2 | B2
36 | ~1 | B5
37 | ~1 | B3
38 | ~0.5 | B4
39 | ~1 | B6
